Test results published in publication PMC2943896, “Additional Serine/Threonine Phosphorylation Reduces Binding Affinity but Preserves Interface Topography of Substrate Proteins to the c-Cbl TKB Domain” (PLoS ONE, 2010).
Where no end group is shown, it is not given here. [ ]: non-standard residue; d: D form. pY = N[C@@H](Cc1ccc(OP(=O)(O)O)cc1)C(=O)O; pT = C[C@@H](OP(=O)(O)O)[C@H](N)C(=O)O

Biological target: T1, c-Cbl TKB domain (UniProt P22681 25-351)
T1 construct: these are not the construct limits; source: cloning, expression and purification as described previously [14]; purified
T1 sequence: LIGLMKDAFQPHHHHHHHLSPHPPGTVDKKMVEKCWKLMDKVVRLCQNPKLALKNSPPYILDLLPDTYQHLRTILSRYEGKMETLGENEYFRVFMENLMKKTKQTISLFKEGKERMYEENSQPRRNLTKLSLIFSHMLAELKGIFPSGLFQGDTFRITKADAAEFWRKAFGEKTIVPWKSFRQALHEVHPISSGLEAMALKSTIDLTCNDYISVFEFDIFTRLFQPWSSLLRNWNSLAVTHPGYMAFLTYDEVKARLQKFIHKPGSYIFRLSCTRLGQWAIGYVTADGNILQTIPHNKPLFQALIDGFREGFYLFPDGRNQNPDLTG
Conditions: both partners purified

For IRNTNE[pY]TEGPT (also called pSpry2; pSprouty2) [Tyr55 phosphorylated Spry2 peptide], the Kd was 310 nM.

B1: pTyr55/pThr56 Spry2 peptide (peptide)
peptide: IRNTNE[pY][pT]EGPT
notes: Sprouty2 (Spry2), human; also called ppSpry2; pYpT-Spry2; source: synthetic peptide, bought: GL Biochem
Work on B1 yielded a Kd of 3830 nM.
